The target in series [1] is T1, translin (untagged, co-expressed);TRAX (human;human, UniProt Q15631;Q99598 1-228;1-290, |). The experiment in a line: UV-laser crosslinking (248 nm); DNA covalently linked to TRAX subunit; silver stain; 25 mM Tris-HCl pH 8.0, 100 mM NaCl, 1 mM EDTA, 30 min; temperature not stated; 4.5% native PAGE in 0.5x TBE. To be noted: protein: recombinant;recombinant; tags: none;N-terminal 6xHis.

Series [2] addresses T1, translin (untagged, co-expressed);TRAX. The experiment in a line: EMSA; 100 nM complex, 100 nM DNA; 25 mM Tris-HCl pH 8.0, 100 mM NaCl, 1 mM EDTA, 30 min; temperature not stated; 4.5% native PAGE in 0.5x TBE. To be noted: protein: recombinant;recombinant; tags: none;N-terminal 6xHis; label: 5'-32P (unlabeled in agarose EMSA). For orientation: Mobility shift assays separate free from complexed probe on a gel.

The target of series [3] is translin (untagged, co-expressed);TRAXB2 (human;human, UniProt Q15631;Q99598 1-228;1-290, |Q115L;H117N;R118A). The description is as above. To be noted: protein: recombinant;recombinant; tags: none;N-terminal 6xHis; label: 5'-32P (unlabeled in agarose EMSA).
Chain of translin (untagged, co-expressed);TRAXB2 (Q15631 whole entry, chain 1 of 2): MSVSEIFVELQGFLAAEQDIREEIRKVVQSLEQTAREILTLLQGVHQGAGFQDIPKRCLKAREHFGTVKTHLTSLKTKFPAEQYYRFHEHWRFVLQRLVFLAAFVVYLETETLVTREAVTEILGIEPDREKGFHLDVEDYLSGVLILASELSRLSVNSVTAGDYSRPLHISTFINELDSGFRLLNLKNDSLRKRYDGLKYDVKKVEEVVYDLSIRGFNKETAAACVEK
Chain of translin (untagged, co-expressed);TRAXB2 (Q99598 whole entry Q115L/H117N/R118A, chain 2 of 2): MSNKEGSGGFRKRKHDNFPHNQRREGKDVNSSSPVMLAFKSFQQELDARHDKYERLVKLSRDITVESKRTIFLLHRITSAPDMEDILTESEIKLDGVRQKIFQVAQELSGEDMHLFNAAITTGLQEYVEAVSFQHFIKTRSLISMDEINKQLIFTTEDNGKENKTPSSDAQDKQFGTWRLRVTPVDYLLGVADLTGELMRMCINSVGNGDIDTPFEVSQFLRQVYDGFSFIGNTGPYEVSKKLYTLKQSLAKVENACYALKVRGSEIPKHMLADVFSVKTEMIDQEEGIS
Series [4] concerns the target translinB2 (untagged, co-expressed);TRAX (human;human, UniProt Q15631;Q99598 1-228;1-290, R86T;H88N;H90N|). The description is as above. To be noted: protein: recombinant;recombinant; tags: none;N-terminal 6xHis; label: 5'-32P (unlabeled in agarose EMSA).
For the series “translinB2 (untagged, …)”, the target named is translinB2 (untagged, co-expressed);TRAXB2 (human;human, UniProt Q15631;Q99598 1-228;1-290, R86T;H88N;H90N|Q115L;H117N;R118A). The series is described as above. The following applies: protein: recombinant;recombinant; tags: none;N-terminal 6xHis; label: 5'-32P (unlabeled in agarose EMSA).
Chain of translinB2 (untagged, co-expressed);TRAXB2 (Q15631 whole entry R86T/H88N/H90N, chain 1 of 2): as the sequence (Q15631 whole entry, chain 1 of 2) above, with R86T, H88N, H90N counted along it
Chain of translinB2 (untagged, co-expressed);TRAXB2 (Q99598 whole entry Q115L/H117N/R118A, chain 2 of 2): as the sequence (Q99598 whole entry Q115L/H117N/R118A, chain 2 of 2) above
Series [5] addresses T1, translin (untagged, co-expressed);TRAX. The experiment in a line: UV-laser crosslinking (248 nm); DNA covalently linked to TRAX subunit; 25 mM Tris-HCl pH 8.0, 100 mM NaCl, 1 mM EDTA, 30 min; temperature not stated; 4.5% native PAGE in 0.5x TBE. The following applies: protein: recombinant;recombinant; tags: none;N-terminal 6xHis; label: 5'-32P (unlabeled in agarose EMSA).
The target of series [6] is translinB3 (untagged, co-expressed);TRAXB3 (human;human, UniProt Q15631;Q99598 1-228;1-290, R192T;K193N;R194S;Y195N|K241N;K242T;Y244N). Kind of series: EMSA; 100 nM complex, 200 nM DNA; 25 mM Tris-HCl pH 8.0, 100 mM NaCl, 1 mM EDTA, 30 min; temperature not stated; 4.5% native PAGE in 0.5x TBE. To be noted: protein: recombinant;recombinant; tags: none;N-terminal 6xHis; label: 5'-32P (unlabeled in agarose EMSA).
Chain of translinB3 (untagged, co-expressed);TRAXB3 (Q15631 whole entry R192T/K193N/R194S/Y195N, chain 1 of 2): as the sequence (Q15631 whole entry, chain 1 of 2) above, with R192T, K193N, R194S, Y195N counted along it
Chain of translinB3 (untagged, co-expressed);TRAXB3 (Q99598 whole entry K241N/K242T/Y244N, chain 2 of 2): as the sequence (Q99598 whole entry Q115L/H117N/R118A, chain 2 of 2) above, with L115Q, N117H, A118R, K241N, K242T, Y244N counted along it

Series [7] concerns the target translinB3 (untagged, co-expressed);TRAXB2 (human;human, UniProt Q15631;Q99598 1-228;1-290, R192T;K193N;R194S;Y195N|Q115L;H117N;R118A). Described as above. The following applies: protein: recombinant;recombinant; tags: none;N-terminal 6xHis; label: 5'-32P (unlabeled in agarose EMSA).
The target in series [8] is translinB3 (untagged, co-expressed);TRAX (human;human, UniProt Q15631;Q99598 1-228;1-290, R192T;K193N;R194S;Y195N|). Described as above. To be noted: protein: recombinant;recombinant; tags: none;N-terminal 6xHis; label: 5'-32P (unlabeled in agarose EMSA).
Chain of translinB3 (untagged, co-expressed);TRAX (Q15631 whole entry R192T/K193N/R194S/Y195N, chain 1 of 2): as the sequence (Q15631 whole entry, chain 1 of 2) above, with R192T, K193N, R194S, Y195N counted along it
Chain of translinB3 (untagged, co-expressed);TRAX (Q99598 whole entry, chain 2 of 2): as the sequence (Q99598 whole entry Q115L/H117N/R118A, chain 2 of 2) above, with L115Q, N117H, A118R counted along it
A further series addresses translinB3 (human, UniProt Q15631 1-228, R192T;K193N;R194S;Y195N). The experiment in a line: EMSA; 100 nM octamer, 200 nM labeled DNA; 25 mM Tris-HCl pH 8.0, 100 mM NaCl, 1 mM EDTA, 30 min; temperature not stated; 4.5% native PAGE in 0.5x TBE. To be noted: protein: recombinant; tags: N-terminal 6xHis; chain copies: 8; label: 5'-32P (unlabeled in agarose EMSA).

T1 sequence (Q15631 whole entry, chain 1 of 2): as the sequence (Q15631 whole entry, chain 1 of 2) above
T1 sequence (Q99598 whole entry, chain 2 of 2): as the sequence (Q99598 whole entry Q115L/H117N/R118A, chain 2 of 2) above, with L115Q, N117H, A118R counted along it
Chain of translinB3 (untagged, co-expressed);TRAXB2 (Q15631 whole entry R192T/K193N/R194S/Y195N, chain 1 of 2): as the sequence (Q15631 whole entry, chain 1 of 2) above, with R192T, K193N, R194S, Y195N counted along it
Chain of translinB3 (untagged, co-expressed);TRAXB2 (Q99598 whole entry Q115L/H117N/R118A, chain 2 of 2): as the sequence (Q99598 whole entry Q115L/H117N/R118A, chain 2 of 2) above
Chain of translinB3 (Q15631 whole entry R192T/K193N/R194S/Y195N): as the sequence (Q15631 whole entry, chain 1 of 2) above, with R192T, K193N, R194S, Y195N counted along it
Chain of translinB2 (untagged, co-expressed);TRAX (Q15631 whole entry R86T/H88N/H90N, chain 1 of 2): as the sequence (Q15631 whole entry, chain 1 of 2) above, with R86T, H88N, H90N counted along it
Chain of translinB2 (untagged, co-expressed);TRAX (Q99598 whole entry, chain 2 of 2): as the sequence (Q99598 whole entry Q115L/H117N/R118A, chain 2 of 2) above, with L115Q, N117H, A118R counted along it

Consider CCTGTAGTAATGGCTGCATTGAACAGATGCATATCTTCCCCTG (ssDNA) [43-mer (trxB2 reverse primer)], for which, in series [1], the binding result was “binds”.

With GCCCTCCTGCCCTCCTTCCGCGGG (ssDNA) [Bcl-CL1 24-mer], the binding result in series [2] was “binds”; in series [3] it was “binds”; in series [4], “binds”; with translinB2 (untagged, …), “binds”; in series [5], “binds”; in the series with translinB3 (untagged, …) [6] it was “no binding”. Also, the binding result with translinB3 (untagged, …) [7] is “no binding”; in series [8], “no binding”; with translinB3, “no binding”.

(Values after paper PMC3299731 (PLoS ONE, 2012).)
